Source: PMC2917276 (Acta Crystallographica Section D: Biological Crystallography, 2010)

molecular target: T1, Recombinant human IL-13 (human, UniProt P35225); assay: SEC; Fab mixed with IL-13 at a Fab:IL-13 molar ratio of 1:1.2, 20 min at 277 K; Superdex 200 10/300 in 20 mM HEPES pH 7.5, 0.1 M NaCl; elution compared with the free Fab; conditions: both partners purified
T1 construct: interleukin-13, human, recombinant; source: bought: R&D Systems (catalog No. 213-IL/CF), reconstituted in PBS pH 7.4
T1 sequence (P35225 35-143): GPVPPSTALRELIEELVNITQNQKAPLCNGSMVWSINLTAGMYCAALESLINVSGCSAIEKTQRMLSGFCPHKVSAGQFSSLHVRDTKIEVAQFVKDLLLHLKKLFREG

| binding result | Binder |
| --- | --- |
| binds | H2L6 Fab (Fab, V domains shown, humanized version of C836 (CDRs grafted into human variable framework segments), human G1 constant domain; humanized version of C836 (CDRs grafted into human variable framework segments), human kappa constant domain) VH: QVTLKESGPVLVKPTETLTLTCTVSGFSLSTYGMGVGWIRQPPGKALEWLAHIWWDDVKRYNPALKSRLTISKDTSKSQVVLTMTNMDPVDTATYYCARMGSDYDVWFDYWGQGTLVTVSS VL: EIVLTQSPATLSLSPGERATLSCRASKSISKYLAWYQQKPGQAPRLLIYSGSTLQSGIPARFSGSGSGTDFTLTISSLEPEDFAVYYCQQHNEYPYTFGQGTKLEIK |
| binds | M1295 Fab (Fab, V domains shown, human G1 constant domain; human kappa constant domain) VH: QVTLKESGPVLVKPTETLTLTCTVSGFSLSTYGVGVGWIRQPPGKALEWLAHIWWDDVKRYNPALKSRLTISKDTSKSQVVLTMTNMDPVDTATYYCARLGSDYDVWFDYWGQGTLVTVSS VL: EIVLTQSPATLSLSPGERATLSCRASKSISKYLAWYQQKPGQAPRLLIYSGSTLQSGIPARFSGSGSGTDFTLTISSLEPEDFAVYYCQQHDYPYTFGQGTKLEIK |
| binds | C836 Fab (Fab, V domains shown, mouse VH of hybridoma mAb C836 joined to the human G1 constant region (Fab part); mouse VL of hybridoma mAb C836 joined to the human kappa constant region; Chimeric Fab; also called His-tagged C836 Fab) VH: QVTLKESGPGILQPSQTLSLTCSFSGFSLSTYGMGVGWIRQPSGKGLEWLAHIWWDDVKRYNPALKSRLTISKDTSGSQVFLKIASVDTSDTATYYCARMGSDYDVWFDYWGQGTLVTVSA VL: DVQITQSPSYLAASPGETITLNCRASKSISKYLAWYQEKPGKTNKLLIYSGSTLQSGIPSRFSGSGSGTDFTLTISSLEPEDFAMYFCQQHNEYPYTFGGGTKLEIK |
